According to publication PMC4379586:
pKd: −log10 of the molar value.

Experiments:
[1] = system: MDM2 C-terminal RING domain (GST fusion) (human); test: ITC; settings: ITC: 10 mM Hepes pH 7.2, 150 mM NaCl, temperature not stated; fluorescence titration (ex 280 nm, em 335 nm): buffer and temperature not stated
[2] = system: MDM2 C-terminal RING domain (GST fusion) (human); test: intrinsic protein fluorescence titration; settings: ITC: 10 mM Hepes pH 7.2, 150 mM NaCl, temperature not stated; fluorescence titration (ex 280 nm, em 335 nm): buffer and temperature not stated

Question: How did the pKd [1] turn out when “XIAP IRES RNA (small, RNP core binding site)” was run?
Answer: Its pKd is 6.15.

Question: What about the pKd [2] of the same substance?
Answer: The pKd was 6.17.
